According to the domain aggregation screens of Martell et al. (2025):

assay: soluble fraction after stress (log2 fold change); higher = more stays soluble; pooled small domains, quantitative proteomics; details: stress: 50 degC
Summary of the method: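 Custom libraries of small protein domains were pooled and measured in a high-throughput format, with quantitative proteomics as the read-out. Each library was stressed at 50°C. The value is the log2 fold change in the amount of each protein that stays soluble after stress, used as a measure of aggregation propensity; higher values mean more of the protein stays soluble.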

| Sequence | soluble fraction (log2) |
| --- | --- |
| HMDLDPVEKLHLLSQLYVGQLKGSFVVKEKNQKTTIIGEVRELSHQTLSIRTNEGYRLIEVADILEIRLWE | -0.221 |
| HMEKVTPEMIAEYNALAKKYNSNPEVVFKKKEIQRLKYIYSLMSEKQKETAEVFPNIPPPPPT | -0.234 |
| HMKTAAKVLGESGGKPVTVQSGRYGPYVQLGTIRATLPKDLDQEAVTLDKALELIDAKAERSGK | 0.172 |
| HMNDRRQDVFELLKSSERPVSAADLAHKFGVTRQVIVADIALLRASDIDIVSTNRGYILKANL | -1.49 |
| HMKVRVFIERSNDGYSAYMPDDNNLPFGLTGDGKTAQEAMQDFLLARDEMKEFFIEEGKEFPEVEFDFS | -1.35 |
| HMYEDNERSLVPIVQNFLKEKKILLSNQSINLIVQRSGGDRINLYNELQKIESFSKNQKKIDIGDIIKLTN | -0.286 |
| HMNMFGIQRRNHLLSLLQEKKSITVQEAAVIFEVAEETIRRDFRTMEGQGLIVRTHGGALLADD | -2.19 |
| HMNDYNLTDREKEVLTFLFQGLEYKEIGMKMSVSPNTIRNHISNIYKKLHVTSKTQAIRVFLNN | -2.21 |
| HMKRTFGEISPLPSGRYRARYRGPDGERYPAPVTFLSRMDAETWLSAQARKVSSGDWTPPVGVVA | -0.16 |
| HMAKIPASTVVEIDGAPVVVAVRVNARARSYRLSIPHSGGPLLTLPPHGKWAEAEAFLLRHHNWLAARLHR | -2.47 |
| HMQPIAVHIGTENPMKSLSDLSVVRAQFTSGGRVIGSVAVLGPTRMQYSRIVGMMRFMQQRLDLLLKG | 0.0586 |
| HMDRRFFVAEENYKRLDVFLSERMEEFTRSRIKKLIDEGHVELNGKSAKAGAEIRPGDEVAAEIPEVKE | 0.147 |
| HMSYKYYSTERPLMPGSFPKPQGNTVLNIENFNDRSYVGKIGREAWGFIEYEKPISPVLLDDYELVAA | 0.0613 |
| HMSPPPRPSHPEAAGLRHLAFEVDNIDDAVRHLDRLGVPHEPVRTDEYTGRRFLFFTDPDRLPLELYEK | -0.0818 |
| HMGADPTTWPEIDAFVGRVAVTATGLFPSGQVEIDGRRFEARLAFGVAEPGARVVVRRRTDFGLLVEKETR | -0.389 |
| HMQAESLTVVRSAELKADRFLDAATLQTLQTGQVVESLRTESGWVQVRIAGQQGWVRAMNVKGA | -0.459 |
| HMRLIDVFELSPKNRTVLQLYYYEGYSVTEISKILKISVNGVTSRLSRARSKLKLEMEAAENE | -0.316 |
| HMDLRIIKTKKAIKTAFLNLLKENKYHNITISAISETALINRKTFYAHYETKDELYADVIEDALRVLSP | 0.0478 |
| HMEDVDTAALEKVIATAKGLNKNDYTATTWTTMQAALTNAEKALEAKKSQTSVDEAAKTLQAAIDGLKKAS | 0.215 |
| HMRDFLMDSTKNKLSKDQVQLSRIFLWFGNDFGSKAERLEFISRYSGMDFNQPKIDYLTYDWSLNQ | 0.278 |
| HMKISELAKKVIASGRVTQWAKHPHIYFVNGMRKVAIELDVNGVFSISMRYYPYDPADRELVENLIRGD | -2.53 |
| HMEKRRQEIVELVKRESEISFAELKQHFPEVSEVTLRKDLKYLDSTLQIIRIHGGAKSLPAAI | -0.362 |
| HMLGYQALASAFRSKVEAGIWPIGEAIPSEARLSKEYGVAVGTIRQAIAELAEEGILIKRHGKSTMVSSG | -0.873 |
| HMANNPISMIKIRQILRLHIQGRSKLQIAAQTGISRNTLKKYLKEFEASKLTYDEISELSDKDLEDLFIK | -2.02 |
| HMPGIDDAAVEHAERVLAQHIGPMARLLVRRTVPRAANLFDLHRRLGALIPESEPRTAFLSAVVT | 0.0708 |

| Sequence | soluble fraction (log2) |
| --- | --- |
| HMSGQKDVPDLYGMTVKQAKKEVEAAGFKLKEGKEVYSNDYSKGQIAEQDPESGSKAKKGSSITVHVSKG | 0.0677 |
| HMVINVNEIIRRIKELKTFKTDRQVADFLGVSKATVSNWMARNSIDFPLLINKLDGVDLTWLLTGRGTPE | -1.16 |
| HMRDRYEYLKELRLYLSPLGRTEEDRVIEYYAELIGDKIESGIPENGVLSQLGTPRELADKILAETQEY | -0.35 |
| HMQDSIYYAQYRINIRNMPSSEGMVISRASVGEALEVLDWQEQWSKVRKQSGVEGYVASRLLTK | -1.24 |
| HMGPNYYDILEIPTDASPSEITQAFRKKALEWHPDKNPNNLEEATSRFIEIVEAYRVLSSKDSKLQYDTG | 0.0242 |
| HMGPEAFPVPYIVDIELDRAIYVIEQSGFIVGQKLEANDDNVPRGFVISQNPAAGTKLGPNSVVDLVISSG | -1.02 |
| HMLQLSDAISRVESFLQGQNRNLAFSIDENTERSVVTVLDSDTGDVIRQIPSEELLVLAKRIQELQQD | 0.151 |
| HMTIDETKKQQVKDGLKDIPGVTVEFVGDKAVLKGAVTDANRVKIMQIVMAAKVLSDASGLTSK | -0.11 |
| HMKEFIPPVLDDVLKFFSGSLLPDWENQGRLFFSHYNSQGWRKGTGVQVTDWDSLANKWILDEKIKRDARS | -0.263 |
| HMGQYLDAATVAAVYHAYHARNWTQATLAKELKVARPTLSNVLNGREAPSVELAARIRAFLGSPEP | -1.66 |
| HMRKAERHLLIKQVIDEFTIRTQEELLAKLSDYGVNATQATISRDIRDLKIVKAPDENGISRFVFF | -0.964 |
| HMTVLDYNENVLSKVMNAAEINDSDKEAFIAFAKDYNSDDNLYLKKEELETAAGAWNARNVE | 0.358 |
| HMGGWEEGVYVVREGDTLSDIVHDAVKGTEIHPDFILNAIVRVNPSAFVRGNPSWMLAGKKIK | -0.0469 |
| HMSFEITGDELILRFVKDKGGATTEQIRKHWEASNRGGKSDNNLTNLVKSGKLLRSKDPNGPGSLYTAS | -0.231 |
| HMRLMLITPTEFDEAAEIADNLKDRRAVLMNVEKTDNETARRLIDFLSGVVYALGGKIMRISAQAYVLT | -0.236 |
| HMDKESQTMFRLLTGVSGVGPKVGLAILSVLSPDRVVLAISAGDHKAFTAASGVGPKLGQRIVLELKDKVG | -3.12 |
| HMIPLSDEETILLKLLEATETHLDALIRGSQLSAAKVSVVLMGMEMKRLVKRLPGQMYQRWD | -1.84 |
| HMFENPRALLEMMISLGNEQGLINMARDIVSAGEFRRLELAAGGDRRKLARMLIDHLVEVAPRLP | -0.394 |
| HMTATWLTYYRIKAGLTQKRLAELAGLNIRQVQKIENGETLAGNTTAKNLLALADALGIDPHKL | -2.05 |
| HMHNNTITLNKKTYVYTASGKKMSKYLGYTYINKGTTLNYYGTKNIKGKTFYYIGDHAYVNAANVGKVTN | -1.92 |
| HMLQVRRILQLLADGYSKRQISQQTAVSRNTIDSYEDRFHLTGKSYQELLSMEDGELSGIVYP | -0.424 |
| HMNLLPAGTYKLKDLVTAEDEEIGAKKGDVVIAHEDTPPSDRVLGVDIFPVIHKNTSKKIYVSLEDI | 0.46 |
| HMQPGDRVDALIVGVSGEHVFLDVGGKSEGVMAAAELRNEAGELSAAEGDRVQVYLLSNRNGELIFTA | 0.00616 |
| HMRSNQKVSQIAISQVLPGMVTAKNVYSRNDQLILNRETTLDSTKIAKIMFYAIESIYVYEPE | -1.9 |
| HMDFYPARVKWFNKSKGFGFANIFKSNDDIFLHIETLKRSGLSDLETGEAIVLTVTEGPRGKMADTILTWD | -0.433 |

| Sequence | soluble fraction (log2) |
| --- | --- |
| HMSSKYLKIYNDIVGKIDSGIFEANTKLPSESQLMDEYNVSRYTVRKSLNLLEQNGYIEKSKGKGSFVLDM | -0.717 |
| HMNYHDTLSYLMDAFGGADNLQKLLGVGPSALSNYRRREHLPLNQARKLSNIAPEFGFNLDPYTLKISVID | -1.57 |
| HMNMMIIHVNGEKYSFQEPITISELILKLELDSRKIAIEYNLEILPRSLFEITSIKNGDKIEIVHFI | -2.37 |
| HMGYDDVIVINGKNETYGFPTKVEDDPVLSLVIKGDRSIDYAEERRLFYVAMTRTKNRVFFVAP | 0.0138 |
| HMAEKAVELTENEKAIQTILSNGALEIGELKTKLELSGKQWDVALKGLAKHGITQVSKVEGVVTVGL | 0.136 |
| HMATVPNVVGLSEEKAKSRLANNGLNVSVTTEEVSDKSKDGIVSSQTSEGDTVKQGATITITVGKYVEK | 0.14 |
| HMREVSPEDLALMRRIDAWHLEHPFAGARLLRDLLRPEGFQAGRRHIGTLMARMGIEALYRK | -0.458 |
| HMNNSVAYSTFLNDIRTNTLKDVDMTSNSETINVTKKDGTKYQTVMPMYDRDLLADLSKTDATVTGQP | 0.28 |
| HMKALYHQLVDLLKKRMESGMIPHDKLPSERELTAQYGVSRTTVRLALQELENTGYIYRRHGKGTFVSDI | -2.27 |
| HMQSANQLIKLSRKRKGLTQQELADQAGVSLRTVQRIEKGTEEISGFSLKQISQILEIPLEQLIM | -0.146 |
| HMLTRSASREELDQLLKRLRQNLKQKNFFWPPDKEKSLVLYLENLFSKFPLNSSDIRFLHGIIRTLSEK | -0.178 |
| HMIMNKEIPVVADEFVEKEFGTGAVKLTPAHDPNDYESGERHGLEVVEVFDETGKMNDLVPEYEG | 0.551 |
| HMGKDLLGYEVFAESGDLVGILKDVMWLPHSDVYVITKGGKEFLIPVIPEVVKGINHEQGVIVISPMEGLL | -0.0165 |
| HMVTVPNYSDPRQYVEWGNANGITINRAVGDTIASMSGRVQDVRDSNGNSVIGKKVKKGSTVTVYIYFLK | -0.00985 |
| HMINEDMTQSDRMELWGRLIDVVEDWLAEKGITEEDIPNEEREGVEDAAIIFGDDYDYLADRFSEVIGISR | -1.18 |
| HMARPLHVDALIHLGTEIGSRVGGAHAGPHLLVAGHSPMSELVYARLLGIPTLGWMRGQLTFVNLSK | 0.155 |
| HMSILSRREHEIMQWVKGGKTNIEIAQILGISARTVRNHLQNVFRKLDVINRAQAVFEVERRR | -2.15 |
| HMFKYLLDTNIVIYVIKKRPIEVMGVFNQNANRMAISAITFSELQHGAEKSVRVQENLNAIEEFTTLIDI | 0.181 |
| HMQINDSSVVQKAVNDVIDQNSKAVSDYWDGKEGAAKFLMGQVMKLTRGQANPDLANQLILTRLQQERV | 0.264 |
| HMSSVVVARTWTDTTGDFKVEAELLGVEGGLVRLKKEDGTVLSVPIAKLSTADRTFLQENQP | 0.144 |
| HMKNTVGEYRKLKSTTILYSNSDLTGTKYTYLPNTTVKILKNISSTVDYVYIKATNRYAYINIYAYT | -2.75 |
| HMIEDMQQWIRQIREIVSNRLDLTRNISDDEIREVISDIVMEQSRQQYMSLNEKKTLMEGVFNSMR | -0.157 |
| HMSQTELIIVEEEMDGERLDAFLAEQVEQLSRSAVKNLINEGQVLVNGAKQKASYHVREGDEISIEIPEPQ | 0.0254 |
| HMNSKYILLQVSDIPKTSLVLERQFGVTEYSVQDEHTLRIYDTSLDMAAVNKALVVQDIAVISSQL | -0.353 |
| HMVRVSELAIEPRLVVEETATGFVGAVVRYANGLIELEDRHGAVRTFPLGPGYLVDGRPVSLVKPT | -0.371 |
